Measurements: the DeepSol protein solubility set

Assay: soluble on expression in E. coli; label from the status in PepcDB or PDB records

Soluble on expression in E. coli, soluble:
MIEAEEQQPCKTDFYSELPKVELHAHLNGSISSHTMKKLIAQKPDLKIHDQMTVIDKGKKRTLEECFQMFQTIHQLTSSPEDILMVTKDVIKEFADDGVKYLELRSTPRRENATGMTKKTYVESILEGIKQSKQENLDIDVRYLIAVDRRGGPLVAKETVKLAEEFFLSTEGTVLGLDLSGDPTVGQAKDFLEPLLEAKKAGLKLALHLSEIPNQKKETQILLDLLPDRIGHGTFLNSGEGGSLDLVDFVRQHRIPLGKAWSFRSSR
MTKIIKNGTIVTATDTYEAHLLIKDGKIAMIGQNLEEKGAEVIDAKGCYVFPGGIDPHTHLDMPLGGTVTKDDFESGTIAAAFGGTTTIIDFCLTNKGEPLKKAIETWHNKANGKAVIDYGFHLMISEITDDVLEELPKVLEEEGITSLKVFMAYKNVFQADDGTLYCTLLAAKELGALVMVHAENGDVIDYLTKKALADGNTDPIYHALTRPPELEGEATGRACQLTELAGSQLYVVHVTCAQAVEKIAEARNKGLDVWGETCPQYLVLDQSYLEKPNFEGAKYVWSPPLREKWHQEVLWNALKNGQLQTLGSDQCSFDFKGQKELGRGDFTKIPNGGPIIEDRVSILFSEGVKKGRITLNQFVDIVSTRIAKLFGLFPKKGTIVVGSDADLVIFDPNIERVISAETHHMAVDYNAFEGMKVTGEPVSVLCRGEFVVRDKQFVGKPGYGQYLKRAKYGT
SAMKPTAGPTTNADLTSAPPHDIFISHAWEDKADFVEALAHTLRAAGAEVWYDDFSLRPGDSLRRSIDKGLGSSRFGIVVLSTHFFKKEWPQKELDGLFQLESSGRSRILPIWHKVSKDEVASFSPTMADKLAFNTSTKSVDEIVADLMAIIRD
SSSSVPNSDRKIVTGPAGYILEDVPHFSDDFPDHPTYPNPLQDNAAYSVVKQYFVDEDDTVPQKIVVHPDSPRGTHFRRAGPRQRVYFESDDVLACIVTCGGLCPGLNTVIREIVCGLSYMYGVKRILGIDGGYRGFYARNTIHLDLKTVNDIHRSGGTILGTSRGGHNTTKIVDSIQDRGINQVYIIGGDGSQKGAAAIFEEIRKRKLKVAVAGIPKTIDNDIPIIDRSFGFDTAVEEAQRAINAAHVEATSFENGIGLVKLMGRYSGFIAMHATLASRDVDCCLIPESPFFLEGSGGLFEFIDKRLKESGHMVIVIAEGAGQDLLSESMKESTTLKDASGNKLLQDIGLWISQRIKDHFAKKMTLTLKYIDPTYMIRAVPSNASDNVCCTLLAQSAVHGVMAGYNGFTVGLVNGRHTYIPFNRITEKQNKVVITDRMWARLLSSTNQPSFMKQADKIHSNQLVGEPGTMKW
MQVKSIKMRWESGGVNYCYLLSDSKNKKSWLIDPAEPPEVLPELTEDEKISVEAIVNTHHHYDHADGNADILKYLKEKNPTSKVEVIGGSKDCPKVTIIPENLKKLHLGDLEITCIRTPCHTRDSICYYVKDPTTDERCIFTGDTLFTAGCGRFFEGTGEEMDIALNNSILETVGRQNWSKTRVYPGHEYTSDNVKFVRKIYPQVGENKALDELEQFCSKHEVTAGRFTLKDEVEFNPFMRLEDPKVQKAAGDTNNSWDRAQIMDKLRAMKNRM
MAHHHHHHMRTFSRTARITSSAACVGRFEHQGVSRDAVLARWSLQVVKPNAMKTGGLIGKGMKFASPLGPSGWATRNSGTGSTVLDVNWDLRERMDYYVHYSVPSTWTVVEHVSDNSVAIQSKPPVCDSPGAEGPTVHGFSLNCFAYKQKVKEPDCEKLLSLFLHRFDASVSNSLAVLSKASGRGNGVICGTAKPEQDISEVLANRLECAVAEITFTPAVGEPLAHGLCRAFYNSNRRFHYVVVVAVPEDEFTLSKDLLTHALLAVVESRVEAAPKGT
SAMNGFERELQSRVLSVIPHGELEGVNGPLQNYTKTMNQALQHEHVVAAAPYVRFTGLAEKGSKLKAIEVRGVDPAYEQAVSSMSDFIDPEAWQNFYSGQQQVILGRGVANELKVQVGDYVTLMIPQTGGTNKVQAPKRVRVKVAGFLTLNGQIDHSLALVPLADAQQYVRLGDGVTGISLKTDDVLDAPSIVREVGNLVNVYVYLKSWQQQFGFLYRDIQLVRT
MKVAVTGRPGVGKTTLCLKVHESLKDKMTVGGFITKEVRRDGVRVGFKLVDLSSGNEEWLARVGEGKARVGKYAVNVEGLEEFLDSVRTDADLVIIDEVGPMELKSRKFVRFVENLMGRERLLFTIHLKSRHRLLDRIRREFKVYVIDESNRNRIAEEITRILEGLEHHHHHH
GMPTFNPELHAQTLNSERAYFVQPDADPAFTPHIGALVEMLTYARLTTLQAVEGLPEDQLWATAPGFANSIGTLLAHIAAVERVYHVLSFQGRDVTPEDDGAAYWGLTMGKEGTAPARLPTLDELRAELADARAETLRVFAAKDDAWLAEPLGPGWANQHWAWFHVMEDEVNHRGQLRLLRQVLAPEEGG
MSLSQPRYLSESKVAIKQSSDINGSNLNVGLLLGTGNPSSAEDALYLKEYISSPDMLGVLDKQLNFRQAFGQSGWDFFYHLSEGATREQFLNYYRDRISVVYDDKTGLLTLGTQGFSPEFAEAFNQAVLKESEKFINEISHRIAREQLQFAEDEMQAARVRLNRSKTELLTYQNSNNVLDPEAQALAATSLVNTLVSQRIQMEAELRNLLTYLRDDAPQVISAQNALKSLSTQIDNEKNKITAPDGHKLNRMAVDFEEIKAKVQFDGEIYKLTLTSIEKTRVDAARKLKVLSVISSPQLPEESAFPNREGHHHHHH
MAGDPMSLPGLSAAADQTIKIGAQSMSESEIIASMLGQLIEHHTDLKTTTIKNLGSNAVQQQALMNGEIDIAATRYTGDALTGTLRMEPEKDPDKALALTQREFKKRYDLKWYDSYGFDNTYAFTVSKELADQYHLETVSDVKKWAPQLKLGVDNYWMKLKGNGYQDFTKTYGMTFGGTYPMQIGLVYDAVKSGKMDIVLAYSTDGRIKSYGLKMLKDDKQFFPPYDCSPVVPEKVLKEHPELEGIIKKMLGKIDTATMQELNYEVDGNLKEPSVVAKEYLEKHRYFESLEHHHHHH
MGHHHHHHSHMASSTSLPAPGSRPKKPLGKMADWFRQTLLKKPKKRPNSPESTSSDASQPTSQDNPLPPSLSSVTSPSLPPTHASDSGSSRWSKDYDVCVCHSEEDLVAAQDLVSYLEGSTASLRCFLQLRDATPGGAIVSELCQALSSSHCRVLLITPGFLQDPWCKYQMLQALTEAPGAEGCTIPLLSGLSRAAYPPELRFMYYVDGRGPDGGFRQVKEAVMRCKLLQEGEGERDSATVSDLL
MAHHHHHHMVSKTRKQRQKKKAGMQAHDGVLPPVVPSVPKSVHLKKTRPNMKGKMKIRLGLESPIDIYNGFEERKGVIWRCPTCAKACRVVGFCVDCASGVKSKSHAGQLSGRASTKKEAAQTRAPKLRIKEKSRVVKLRRKK

Soluble on expression in E. coli, not soluble:
MAGDPMTMRVCYRCGISEEEGGPLINGLCQVCFRKENPVLLLPSEINTELCQNCGSYKKRGVWIDPQNYELESLIFEVAENALLEALEESLDKVKEFEVVPWEELENINNIPVGKAFVGFIPVDYHIQYFPAVIVYRVRVKARLHELQLEPHDEIKETTVYVRQTVCPRCQRFLAGYYEAILQVRVEDREFTKEEREAVTKLVQEKVDEIMKKDRMGFIQDTIEKEEGIDFYMGSTSAARKLANVIREHFGGEISEAYELVGLDRMTSKEVYRTSVTVRLPKFRRGDIVEDRHGRIYKVENVSGKGMRLKNLETWESQHYDWKTIKREKIDKAEHEEKKALLISQTPREAQFMDMSTYETFEVLKPGVNLEEGQLYRLVKVKGRFYIKEKEGEELEHHHHHH
MPFRNAVQTASPPTTPKQKAHHDRIHVHPFGLGTHLCQRPLPHDQTVRRGRTQAQTFRTPHDRAGGRFRADRRSCLHPRIPCRIGTRSGLGVLCHSRLPVPDFCVSMFCVAVFLAHAQQGIDKHRNAV
MGSDKIHHHHHHMPMIHYIFNREIVPPAIEPLLKQLFSGQNFTQSDRLLGYSKGRGITWFLNTQAELGINIVLRHYYRGGLFGKVVKDRYLFQRIDQTRAVQEFNLLTQMQRWHLPVPRPIAVEINKQSIFYRAKIMLEKIEHTQDLSKLLQTQPLVAEQYQQLGQLIRQLHDHQIHHSDLNIHNILLDDNGKFWLIDFDKCCIKAGEEWKQANLNRLLRSFHKEQTRLGIQFHQQNWQSLLTGYQQHNQGDNR
MKYSSFLKQAEENLVPIFSEIDAKVKENLYKVIEAFRHHRVGVQHFAGVSGYGHDDLGRDTLDGVFAQVMGAESAAVRVQFVSGTHAIACALYGILRPGDELLSAVGSPYDTLEEVIGLRGSCQGSLADFNISYRQLPLTAAGTVDWQGLETAVRPETRLVLIQRSCGYSWRPSLAIADIARIIEIVKAQNPRTLCFVDNCYGEFIETVEPTAIGVDLMAGSLIKNPGGTIVTAGGYLAGKEEWVEAGAYRLTAPGIGLEHHHHHH
MGSDKIHHHHHHMSDEWIKIFESDFYVREMIKVWDEGEKWANWIDEVVSKYKLEKKVLDIPCGIGRVSYFLANRGYKVTGIDISERMISMARSNIQNGKFIVGDMRKIKEIIGNEKYDLVINIYNSLGYYSEEDDLKILESLRDSTRKIVVINLDNRDYIIYNRPNEYYTYIPPYLVYSKVEFEQETSRLKIYRKYYLNDKEVGEMIYEQRLYSIHEILALLKKAGLQPIEVLSGYSWKKFSIMDPEMTIIATPA
MGSDKIHHHHHHVAVWNPWRGCHRYSEGCKFCYIHKGDMKRGMDTNLIVKSAKFNAPVAVNKQGHYIMKSGQLVYCCFSTDFLLEDADPWRDECWSMMKERPDLHFLFLTKRIERFSQCLPGDWGEGYENVTVGCTVENQHTADERLEIFSKLPIKHKNIALQPMLEAIDIEKYLEGIELVVVGGEYDRNARPFDYEWALAVREQCIRHQVSFSFRQCGTNFIQNGKLRRLNYGMLFKCARESNIDYQAGRE
MGDNWRYEVKYDGFRTILFWTKETIRLESRNERLLTDQFPEIHDFCQRISNKVEAWLPITIDGELVHLVSPYRAHFAPIQTRSFMRKHETIAASSIKTPATLLAFDILELKGKTLVDLPYDERKKQLKALLKAIDVPLEHHHHHH
MVLRTGRLSDFQRDMMNDHWAKFGLDYQKSPFDFVEIFGNANPVVLEIGFGMGRSLVEMAAQNPDRNYIGIEVHTPGVGACIAYAVEKQVDNLRVICHDATEILRDAVADGSLAGLQLYFPDPWQKSKHHKRRIVQTEFVMRLLTKLTAGGFIHFATDWQNYAEHMLAVLRQFSPALVNTSPTGDFIDRPAFRPLTKFEARGQRLGHAVWDLYFVKKLEHHHHHH
MAKYTREDIEKLVKEENVKYIRLQFTDILGTIKNVEIPVSQLGKALDNKVMFDGSSIEGFVRIEESDMYLYPDLNTFVIFPWTAEKGKVARFICDIYNPDGTPFEGDPRNNLKRILKEMEDLGFSDFNLGPEPEFFLFKLDEKGEPTLELNDKGGYFDLAPTDLGENCRRDIVLELEEMGFEIEASHHEVAPGQHEIDFKYAGAVRSCDDIQTFKLVVKTIARKHGLHATFMPKPLFGVNGSGMHCNLSLFKNGVNAFFDENADLQLSETAKHFIAGIVKHATSFTAVTNPTVNSYKRLVPGYEAPCYVAWSAQNRSPLIRIPASRGISTRVEVRSVDPAANPYLALSVLLAAGLDGIKNKLEAPAPIDRNIYVMSKEERMENGIVDLPATLAEALEEFKSNEVMVKALGEHLFEHFIEAKEIEWDMFRTQVHPWEREQYMSQY
MFKRIGLISIALSLNTISFTSEACSALVFNKNKPATVAVNLDWKYREGAFVIHPRNAMMVSSVDYHSMHPLIWKSQYGSVIFHGGNRFKAGPSADGMNEKGLTASILMLDSSIYPSNSELPALKTTEWVQYILDNFQTVQEVIDDSSNYQLVADTYRGITMNVHLMVSDAEGKSAVFEYLDGKLVIHTQDNLTTPVLTNTDYKLSLALLEEYQDHGGSKALPGGYDSKSRFVRAAHYLKKLPSFIAKEEHIAYAFNGLNVVTQAPGTSSPTQLSMVFDIPTKTIYFRSINEAALRVIPMDSIDFDYLYQPIALNVYQHLSGDVTDKFQPMIG
